Data reported in the FLAb antibody collection (doi:10.7554/elife.23156).

B1: scFv; the commonest letter at each place (parent)
chain 1: EVKLDETGGGLVQPGRPMKLSCVASGFTFSDYWMNWVRQSPEKGLEWVAQIRNKPYNYETYYSDSVKGRFTISRDDSKSSVYLQMNNLRVEDMGIYYCTGSYYGMDYWGQGTSVTVS
chain 2: DVVMTQTPLSLPVSLGDQASISCRSSQSLVHSNGNTYLRWYLQKPGQSPKVLIYKVSNRFSGVPDRFSGSGSGTDFTLKISRVEAEDLGVYFCSQSTHVPWTFGGGTKLEIK

What was measured:
[1] = variants of: B1; assay: Kd (Tite-Seq); settings: with fluorescein; format: scFv 4-4-20, heavy + light
[2] = variants of: B1; assay: yeast surface expression (ratio to wild type); higher = more expressed; settings: format: scFv 4-4-20, heavy + light

Row | Kd [1] | Variant | yeast surface expression [2]
1 | ≥ 10 µM | chain 1 Y32W V37S | 0.579
2 | ≥ 10 µM | chain 1 G100W S101D G109V | 0.286
3 | ≥ 10 µM | chain 1 F29M W33M | 0.873
4 | ≥ 10 µM | chain 1 F29M W33P | 0.639
5 | ≥ 10 µM | chain 1 W36L | 0.686
6 | ≥ 10 µM | chain 1 W36D | 0.512
7 | ≥ 10 µM | chain 1 W36A | 0.44
8 | ≥ 10 µM | chain 1 G104S | 0.799
9 | ≥ 10 µM | chain 1 G104H | 0.716
10 | 0.694 µM | chain 1 M34K | 0.913
11 | ≥ 10 µM | chain 1 G100D M105W W108Y | 0.168
12 | ≥ 10 µM | chain 1 G100I Y107D | 0.381
13 | ≥ 10 µM | chain 1 Y102R Y103P | 0.979
14 | ≥ 10 µM | chain 1 Y32K V37R | 1.18
15 | ≥ 10 µM | chain 1 W108S G109R | 0.307
16 | 0.205 µM | chain 1 T28D V37G | 1.16
17 | 0.000804 µM | chain 1 T28D V37Q | 0.726
18 | 0.00444 µM | chain 1 S30R M34C | 0.668
19 | ≥ 10 µM | chain 1 G100P G104H | 0.68
20 | ≥ 10 µM | chain 1 Y32L N35F | 0.363
21 | ≥ 10 µM | chain 1 G104S W108E | 0.198
22 | ≥ 10 µM | chain 1 F29T Y32P | 0.901
23 | ≥ 10 µM | chain 1 M34Y N35R | 0.505
24 | 7.33 µM | chain 1 N35P W36V | 1.08

Row | Kd [1] | Variant | yeast surface expression [2]
25 | ≥ 10 µM | chain 1 Y103W G104F M105E | 0.578
26 | 0.00166 µM | chain 1 Y103W W108L | 0.629
27 | ≥ 10 µM | chain 1 D106L W108R G109Y | 0.0998
28 | ≥ 10 µM | chain 1 G104K Y107N | 0.424
29 | ≥ 10 µM | chain 1 D31P W33S | 0.352
30 | ≥ 10 µM | chain 1 Y107K W108A | 0.575
31 | 0.00104 µM | chain 1 S30A M34C | 0.868
32 | 0.000743 µM | chain 1 S30V | 0.901
33 | 0.000938 µM | chain 1 S30Q | 1.12
34 | ≥ 10 µM | chain 1 Y103G M105N | 1.46
35 | ≥ 10 µM | chain 1 W33A W36H | 0.549
36 | ≥ 10 µM | chain 1 T28G F29P | 0.769
37 | ≥ 10 µM | chain 1 T28W N35A | 0.862
38 | 0.00184 µM | chain 1 T28S V37Q | 0.71
39 | ≥ 10 µM | chain 1 G104L W108R | 0.278
40 | ≥ 10 µM | chain 1 F29H W36D | 0.486
41 | ≥ 10 µM | chain 1 G100C D106Q | 0.754
42 | ≥ 10 µM | chain 1 S101E G104K M105C | 0.346
43 | ≥ 10 µM | chain 1 F29P D31A M34A | 0.567
44 | ≥ 10 µM | chain 1 Y32Q W36V | 0.479
45 | ≥ 10 µM | chain 1 Y107Q W108Q | 0.385
46 | ≥ 10 µM | chain 1 D31Y W36S | 0.638
47 | ≥ 10 µM | chain 1 Y102H M105P | 0.764
48 | ≥ 10 µM | chain 1 S30R W36G | 0.171

Row | Kd [1] | Variant | yeast surface expression [2]
49 | ≥ 10 µM | chain 1 G104D Y107D | 0.716
50 | ≥ 10 µM | chain 1 Y107V G109E | 0.339
51 | ≥ 10 µM | chain 1 F29L S30L | 0.651
52 | ≥ 10 µM | chain 1 Y102D Y103L G109P | 0.465
53 | 6.61 µM | chain 1 D31S Y32C | 0.648
54 | 0.0944 µM | chain 1 D31L Y32A | 0.73
55 | 0.832 µM | chain 1 T28Q N35P | 0.622
56 | ≥ 10 µM | chain 1 G104R Y107R | 0.263
57 | ≥ 10 µM | chain 1 Y102M M105T W108T | 0.539
58 | ≥ 10 µM | chain 1 Y103P D106M | 0.742
59 | ≥ 10 µM | chain 1 T28N Y32Q | 1.04
60 | 0.0125 µM | chain 1 Y102S Y103C | 0.707
61 | ≥ 10 µM | chain 1 M34Q N35S | 0.621
62 | ≥ 10 µM | chain 1 D31E M34P | 0.406
63 | ≥ 10 µM | chain 1 W33R M34I | 0.644
64 | 0.0125 µM | chain 1 Y32F V37I | 0.835
65 | ≥ 10 µM | chain 1 G104E W108S | 0.331
66 | ≥ 10 µM | chain 1 G104S Y107S | 0.437
67 | ≥ 10 µM | chain 1 Y102D D106T | 1.12
68 | ≥ 10 µM | chain 1 T28L W33S | 0.867
69 | ≥ 10 µM | chain 1 S30L W33D | 0.844
70 | ≥ 10 µM | chain 1 S30L W33E | 0.645
71 | ≥ 10 µM | chain 1 F29Y N35A | 0.842
72 | ≥ 10 µM | chain 1 S101W Y102Q W108A | 0.239

Row | Kd [1] | Variant | yeast surface expression [2]
73 | 0.228 µM | chain 1 Y103W | 0.862
74 | 0.0445 µM | chain 1 Y103D | 1.21
75 | ≥ 10 µM | chain 1 Y107N W108D G109C | 0.313
76 | ≥ 10 µM | chain 1 Y103H Y107Q | 0.941
77 | ≥ 10 µM | chain 1 Y107D W108Q | 0.706
78 | ≥ 10 µM | chain 1 Y107D W108C | 0.269
79 | ≥ 10 µM | chain 1 F29G S30K | 1.04
80 | ≥ 10 µM | chain 1 G100H S101H | 0.273
81 | ≥ 10 µM | chain 1 M105T | 1
82 | 0.0423 µM | chain 1 M105Q | 1.23
83 | ≥ 10 µM | chain 1 F29I W33D M34W | 0.719
84 | 0.00672 µM | chain 1 D31N Y32M | 0.945
85 | 0.0189 µM | chain 1 T28G | 0.994
86 | 0.0038 µM | chain 1 T28W | 0.893
87 | ≥ 10 µM | chain 1 S101N Y107M | 0.616
88 | ≥ 10 µM | chain 1 F29A W33N | 0.741
89 | ≥ 10 µM | chain 1 G100Y M105R | 0.513
90 | 0.00245 µM | chain 1 D31S | 0.902
91 | 0.00343 µM | chain 1 D31A | 0.772
92 | ≥ 10 µM | chain 1 D31I | 0.531
93 | 0.00293 µM | chain 1 D31W | 0.566
94 | 0.0302 µM | chain 1 D31P N35F | 0.944
95 | 0.0372 µM | chain 1 T28K F29C | 0.906
96 | ≥ 10 µM | chain 1 Y32E W33K | 0.742

Row | Kd [1] | Variant | yeast surface expression [2]
97 | ≥ 10 µM | chain 1 S101W G104W | 0.254
98 | ≥ 10 µM | chain 1 S101C G104C | 0.33
99 | ≥ 10 µM | chain 1 N35L W36R | 0.352
100 | ≥ 10 µM | chain 1 G100D D106G G109S | 0.224
101 | ≥ 10 µM | chain 1 G100D W108R | 0.146
102 | 0.205 µM | chain 1 W33P N35Y | 0.393
103 | 2.47 µM | chain 1 Y107R G109S | 0.665
104 | ≥ 10 µM | chain 1 G104H D106H | 0.586
105 | 8.56 µM | chain 1 D31H Y32S | 0.802
106 | ≥ 10 µM | chain 1 S101W M105Q | 0.517
107 | ≥ 10 µM | chain 1 Y32C N35M | 0.536
108 | ≥ 10 µM | chain 1 G100T G109K | 0.433
109 | 0.000333 µM | chain 1 M105R W108L | 0.585
110 | ≥ 10 µM | chain 1 S101W G109T | 0.212
111 | ≥ 10 µM | chain 1 Y102D M105I | 1.08
112 | ≥ 10 µM | chain 1 G104W M105R | 0.484
113 | ≥ 10 µM | chain 1 N35C | 0.708
114 | ≥ 10 µM | chain 1 N35Y | 0.697
115 | ≥ 10 µM | chain 1 D31C W33P | 0.671
116 | 0.0318 µM | chain 1 T28I F29L | 0.851
